Experimental data from patent publication US20260078416A1, “ORTHOGONAL METABOLIC FRAMEWORK FOR ONE-CARBON UTILIZATION” (Mojia Biotech Pte. Ltd., priority 2021, published 2026).

B1: JGI20: HACS variant; GenBank PWB41796.1 (protein)
chain: MGQITGAQIVARALKQQGVEYMFGIVGIPVIPIAMFAQREGIKFYGFRNEQSASYAAAAVGYLTGRPGVCLGVSGPGMIHGVAGMANAWSNCWPMILIGGANDSYQNGQGAFQEAPQIEAARPFAKYCARPDSLARLPFYVEQAVRTSIYGRPGAVYLDLPGDIITGAMEEEDVHFPPRCPDAPRMMAPQESIDAAMAALKSAERPLVIVGKGAAYSRAENEVREFLETTQLPYLASPMGKGVMPDDHPLSIAPARSAALLGADVILLMGARLNWMMHFGHPPRFDPKVRVIQMDISAEEIGTNVPTEVALVGDAKAITTQLNASLKQQPWQYPSETTWWTGLRKKIDENGATVAEMMADESVPMSYYRVYREIRDLIPNDAIIQNEGASTMDIGRTLMPNFLPRHRLDAGSFGTMGVGLGQAIAAAAVHPDKHVFCIEGDSAFGFSGMEVETAARYGMKNITFIIINNNGIGGGPDTLDPTRVPPSAYTPNAHYEKMAEIYGGKGYFVTEPSQLRPALEEAIKADKPAIVNIMISATSQRKPQQFAWLTR
B2: JGI15: HACS variant; GenBank HAK63664.1 (protein)
chain: MAKSEGKVNGATLMARALQQQGVQYMFGIVGFPVIPIAIAAQREGITYIGMRNEQSASYAAQAASYLTGRPQACLVVSGPGVVHALAGLANAQVNCWPMLLIGGASAIEQNGMGAFQEERQVLLASPLCKYAHQVERPERIPYYVEQAVRSALFGRPGAAYLDMPDDVILGEVEEAAVRPAATVGEPPRSLAPQENIEAALDALQSAKRPLVIVGKGMAWSRAENEVRQFIERTRLPFLATPMGKGVMPDDHPLSVGGARSHALQEADLVFLLGARFNWILHFGLPPRYSKDVRVIQLDLSAEEIGNNRQAEVALVGDGKAIVGQLNQALSSRQWFYPAETPWREAIAAKIAGNQAAVAPMIADNTSPMNYYRVYRDIAARLPRNAIIVGEGANTMDIGRTQMPNFEPRSRLDAGSYGTMGIGLGFAVAAAAVHPGRPVIAVQGDSAFGFSGMEFETAARYGMPIKVIILNNGGIGMGSPAPRDGQPGMPHALSHDARYERIAEAFGGAGFYVTDSAELGPALDAAMAFKGPAIVNIKIAATADRKPQQFNWHG

System: glycolate production from formaldehyde
Test: High throughput resting-cell screening of first round HACS variants co-expressed with LmACR
Type: cell-based, E. coli
Settings: 5 mM formaldehyde, 3 hours
Source text: We used glycolic acid (glycolate) productivity per cell density (uM glycolate/OD600) as indicator of HACS activity. Glycolate can be produced from formaldehyde as sole carbon source in the presence of active HACS variant and acyl-CoA reductase from Listeria monocytogenes (LmACR) (FIG. 20A). LmACR is shown to be capable of catalyzing oxidation reaction from formaldehyde to formyl-CoA (Chou, A., et al. Nat. Chem. Biol. 15:900-906 (2019)). HACS condenses formaldehyde and formyl-CoA to form glycolyl-CoA, which can then be hydrolyzed to glycolate via native thioesterase activities (FIG. 20A).
To prototype glycolate production pathway from formaldehyde in vivo, we constructed vectors overexpress various HACS candidates and LmACR, with both under control of the IPTG-inducible T7 promoter in pCDFDuet-1 and pETDuet-1, respectively (FIG. 20C). […]
Cells from the above pre-cultures were then centrifuged (4000 rpm, 22° C.), washed with the above minimal media without any carbon source, and resuspended with 1 mL of above minimal media containing indicated amounts of carbon source. […] After incubation at 30° C. for 3 hours, the cells were pelleted by centrifugation and the supernatant analyzed by HPLC or GC-MS as described below. […] The soluble cell lysates obtained from the supernatant were analyzed using SDS-PAGE. […]

Molecule | glycolate productivity and relative HACS expression compared with RuHACL
B1 | better glycolate productivity and relative HACS expression than the starting reference
B2 | better glycolate productivity and relative HACS expression than the starting reference
